The record followed here is US20030175730, “Multivalent RNA aptamers and their expression in multicellular organisms” (published 2003).

Data set [1] deals with T1, B52 (SRp55) full length (Drosophila melanogaster, UniProt P26686 P26686:1-350). As to the kind of experiment: EMSA; strong binder; both conserved flanking Gs. The settings on record: tags: baculovirus/Sf9 expressed, SR protein purification; label: 32P-UTP; hairpin. As for the experimental part: (§1) All binding assays were performed in 20 μl volume in 1× binding buffer described above. A typical binding assay using labeled RNA contains about 20 finole of ³²P-labeled RNA probe and differing amounts (1-10 pmole) of B52 protein. A typical binding assay using the truncated versions of B52 contains 1 μl of the ³⁵S-labeled translation reaction mixture with 2 pmoles of unlabeled RNA transcript (the final concentration of RNAs in this reaction was 100 nM and concentration of the labeled B52 proteins was much lower). The reactions were allowed to equilibrate for 15-20 minutes at ambient temperature before being subjected to filter binding, gel shift, or UV crosslinking.
(§2) To determine the sequence/structure requirements for binding by B52, deletion and substitution mutations, and antisense constructs of BBS were designed in light of the shared sequence motif and predicted secondary structures (FIG. 4). These short RNA transcripts were produced by in vitro transcription of synthetic templates, and their affinity to B52 was assayed by band shift.

Data set [2] addresses T1, B52 (SRp55) full length. As to the kind of experiment: filter; signal 20x background of unselected pool. The note with it: tags: baculovirus/Sf9 expressed, SR protein purification; hairpin. As for the experimental part: as §1
(§3) When individual RNA's transcribed from cloned sequences were tested by filter binding assay the BBS RNA's were all able to bind B52 to generate signals that were 20 times the background produced by RNA's from the unselected pools. […] After cloning the selected sequences, RNA transcripts without most of the 3′ constant region were made by cutting the template with the restriction endonuclease Scal. […] The band shift assay was first performed with these sequences. Two sequences randomly picked from the original unselected pool were used as controls. Increasing amounts of B52 were added to ³²P-labeled RNA probes, which contain the 5′ constant region, in the presence of a large excess of tRNA. […]

The target in data set [3] is T1, B52 (SRp55) full length. As to the kind of experiment: EMSA; binding not compromised. The note with it: tags: baculovirus/Sf9 expressed, SR protein purification; label: 32P-UTP; hairpin. As for the experimental part: as §1, §2
For data set [4], the target named is T1, B52 (SRp55) full length. As to the kind of experiment: EMSA; pentavalent vs monovalent; single-unit ribozyme-cleaved transcript tested in FIG. 9A. The settings on record: tags: baculovirus/Sf9 expressed, SR protein purification; multivalent, five BBS hairpins closed by S35 stem. On the procedure:
(§4) Gel shifts were performed at 4° C. The binding reaction mixtures were set at 4° C. for 5-10 minutes before being loaded onto a 2.5% agarose gel in ¼ TBE buffer. The avidity of the pentavalent RNA aptamer to B52 was examined on longer agarose gels (25 cm) to improve the resolution of RNA bands. The affinity of the RNA for the in vitro translated polypeptides was estimated by comparing the intensity of the bands representing the complex on the agarose gel and that of the corresponding polypeptides run on SDS-PAGE. To crosslink proteins to RNA, the binding reaction mixtures were irradiated for 20 minutes from 5 cm directly above by inverting a short-wavelength UV trans-illuminator. The products of crosslinking were analyzed using standard SDS-PAGE.
Fragment C, which contains no binding site, served as an internal loading control in a band shift assay to assess the avidity of the pentavalent construct. During the transcription reaction, the extent of self-cleavage reached about 90% (FIG. 9A, Lane 1). […] The multivalent RNA aptamers bound B52 10-fold more avidly than the individual monovalent RNA aptamers, as shown here compared to the strong-binding primary aptamer BBS #14 (Lanes 2-4 vs. Lanes 6-8, FIG. 9A). […]

The target in data set [5] is T1, B52 (SRp55) full length. As to the kind of experiment: EMSA; full binding activity. The settings on record: tags: baculovirus/Sf9 expressed, SR protein purification; label: 32P-UTP; hairpin with unfolded 3' tail. As for the experimental part:
as §1, §2

Data set [6] deals with T1, B52 (SRp55) full length. As to the kind of experiment: EMSA; binds as well as BBS-I. The settings on record: tags: baculovirus/Sf9 expressed, SR protein purification; label: 32P-UTP; hairpin with internal loop. As for the experimental part: as §1, §2
Data set [7] addresses T1, B52 (SRp55) full length. As to the kind of experiment: EMSA; antisense does not bind. The note with it: tags: baculovirus/Sf9 expressed, SR protein purification, label: 32P-UTP. On the procedure: as §1, §2
In data set [8] the target is T1, B52 (SRp55) full length. As to the kind of experiment: EMSA; 1:1; 50 mM Tris pH 7.6, 200 mM KOAc, 5 mM MgCl2, excess tRNA, gel 4 C. The note with it: tags: baculovirus/Sf9 expressed, SR protein purification; label: 32P-UTP; hairpin. As for the experimental part: as §1, §3
Another data set addresses T2, HSF (heat shock factor) (UniProt P22813 P22813:1-691).
T2 sequence: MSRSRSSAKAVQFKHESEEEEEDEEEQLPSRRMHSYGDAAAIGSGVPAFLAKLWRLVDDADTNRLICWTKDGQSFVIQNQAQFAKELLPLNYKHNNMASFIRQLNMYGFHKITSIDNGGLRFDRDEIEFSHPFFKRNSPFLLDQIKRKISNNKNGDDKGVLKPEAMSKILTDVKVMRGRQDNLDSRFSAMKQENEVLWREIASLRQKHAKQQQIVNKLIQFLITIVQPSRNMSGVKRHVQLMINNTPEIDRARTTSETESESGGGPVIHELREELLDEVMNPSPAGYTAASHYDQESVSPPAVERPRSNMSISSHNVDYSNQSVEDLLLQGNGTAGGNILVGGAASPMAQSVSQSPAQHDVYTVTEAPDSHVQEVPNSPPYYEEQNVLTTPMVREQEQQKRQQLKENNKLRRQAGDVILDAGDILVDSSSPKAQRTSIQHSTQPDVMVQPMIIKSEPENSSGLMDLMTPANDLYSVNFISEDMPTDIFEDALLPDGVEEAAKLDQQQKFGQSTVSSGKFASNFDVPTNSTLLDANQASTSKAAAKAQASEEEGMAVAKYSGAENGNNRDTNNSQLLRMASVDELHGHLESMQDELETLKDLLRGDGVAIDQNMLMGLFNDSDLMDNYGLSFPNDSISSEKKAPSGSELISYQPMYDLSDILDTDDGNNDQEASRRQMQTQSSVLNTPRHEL
As to the kind of experiment: no measurable affinity for BBS RNAs; individual BBS and method not specified. The settings on record: hairpin.

A further data set deals with T3, RBP1 (SR protein) (UniProt Q02427 Q02427:1-144).
T3 sequence: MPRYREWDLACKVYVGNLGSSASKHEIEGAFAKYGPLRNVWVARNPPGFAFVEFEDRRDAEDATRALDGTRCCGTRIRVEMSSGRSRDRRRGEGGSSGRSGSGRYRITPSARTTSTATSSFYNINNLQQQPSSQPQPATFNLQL
The data set is described as above. The note with it: hairpin.

For the next data set, the target named is B52 full length (F) (Drosophila melanogaster, UniProt P26686 P26686:1-350). As to the kind of experiment: EMSA; 100 nM RNA; affinity comparable to baculovirus B52. The note with it: tags: 35S-Met, reticulocyte lysate; hairpin. As for the experimental part: as §1
(§5) BBS RNAs were selected for their ability to bind full length B52 protein. It is possible that B52 binds RNA through either one or the other RRMs, the SR domain, or a combination of these domains. To identify the specific RNA-binding site on B52, a set of ³⁵S-methionine labeled B52 deletion constructs were prepared by in vitro translation and then tested for their ability to bind the selected BBS #8 RNA in two different assays (FIG. 6A). These polypeptides also serve as a second source of target proteins in binding assays to confirm the specificity of binding to the selected BBS RNA.

The target in the next data set is B52 RRM1+RRM2 (R12) (Drosophila melanogaster, UniProt P26686 P26686:4-188). As to the kind of experiment: EMSA; affinity comparable to baculovirus B52; also UV-crosslinked. The note with it: tags: 35S-Met, reticulocyte lysate; hairpin. On the procedure:
as §4
(§6) BBS RNAs were selected for their ability to bind full length B52 protein. It is possible that B52 binds RNA through either one or the other RRMs, the SR domain, or a combination of these domains. To identify the specific RNA-binding site on B52, a set of ³⁵S-methionine labeled B52 deletion constructs were prepared by in vitro translation and then tested for their ability to bind the selected BBS #8 RNA in two different assays (FIG. 6A). […]
(§7) To confirm the requirements of both RRMs for binding, these binding reactions were repeated and the reaction mixtures were subjected to UV irradiation. The UV-crosslinked species were then analyzed on SDS-PAGE. […]

The next data set has as its target B52 RRM2+SR domain (R2S) (Drosophila melanogaster, UniProt P26686 P26686:115-350). As to the kind of experiment: EMSA; 100 nM RNA, no discrete band. The note with it: tags: 35S-Met, reticulocyte lysate; hairpin. On the procedure:
as §4, §5

The target in another data set is B52 SR domain (S) (Drosophila melanogaster, UniProt P26686 P26686:189-350). As to the kind of experiment: EMSA; 100 nM RNA, no discrete band. The note with it: tags: 35S-Met, reticulocyte lysate; hairpin. On the procedure:
as §4, §5

The target in the next data set is B52 RRM1 (R1) (Drosophila melanogaster, UniProt P26686 P26686:4-74). As to the kind of experiment: EMSA; no band; not UV-crosslinked; not complemented by R2S in trans. The note with it: tags: 35S-Met, reticulocyte lysate; hairpin. As for the experimental part: as §4, §6, §7
In data set [9] the target is T1, B52 (SRp55) full length. As to the kind of experiment: EMSA; consensus trapped in duplex loses binding. The settings on record: tags: baculovirus/Sf9 expressed, SR protein purification; label: 32P-UTP; hairpin, BBS consensus paired with its antisense via UUCG tetraloop. On the procedure: as §1, §2
In data set [10] the target is T1, B52 (SRp55) full length. As to the kind of experiment: EMSA; fully active. The settings on record: tags: baculovirus/Sf9 expressed, SR protein purification; label: 32P-UTP; hairpin. On the procedure:
as §1, §2

T1 sequence (P26686 other isoform, or with tags, fused parts or gaps): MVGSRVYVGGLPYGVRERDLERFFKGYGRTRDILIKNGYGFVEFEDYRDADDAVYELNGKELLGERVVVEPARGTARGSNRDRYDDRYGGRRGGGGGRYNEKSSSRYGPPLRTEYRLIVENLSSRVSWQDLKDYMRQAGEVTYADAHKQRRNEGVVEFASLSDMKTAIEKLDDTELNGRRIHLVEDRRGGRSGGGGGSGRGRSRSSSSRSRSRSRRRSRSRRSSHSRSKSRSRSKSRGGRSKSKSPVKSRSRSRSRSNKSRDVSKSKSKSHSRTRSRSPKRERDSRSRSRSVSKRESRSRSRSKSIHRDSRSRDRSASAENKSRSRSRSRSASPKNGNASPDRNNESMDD
Chain of B52 SR domain (S) (P26686 other isoform, or with tags, fused parts or gaps): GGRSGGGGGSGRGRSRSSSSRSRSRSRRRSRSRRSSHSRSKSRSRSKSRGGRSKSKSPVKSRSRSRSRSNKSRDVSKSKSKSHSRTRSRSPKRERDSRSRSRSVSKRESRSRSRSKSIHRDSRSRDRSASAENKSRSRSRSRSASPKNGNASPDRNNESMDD
Chain of B52 RRM1+RRM2 (R12) (P26686 other isoform, or with tags, fused parts or gaps): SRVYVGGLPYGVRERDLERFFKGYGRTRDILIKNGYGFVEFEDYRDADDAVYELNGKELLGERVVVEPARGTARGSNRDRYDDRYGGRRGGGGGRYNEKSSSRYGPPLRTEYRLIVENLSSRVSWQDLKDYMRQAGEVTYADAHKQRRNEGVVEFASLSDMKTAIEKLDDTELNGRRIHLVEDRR
Chain of B52 RRM1 (R1) (P26686 4-74, one chain of several): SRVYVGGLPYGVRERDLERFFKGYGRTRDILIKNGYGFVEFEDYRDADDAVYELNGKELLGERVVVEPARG
Chain of B52 RRM2+SR domain (R2S) (P26686 other isoform, or with tags, fused parts or gaps): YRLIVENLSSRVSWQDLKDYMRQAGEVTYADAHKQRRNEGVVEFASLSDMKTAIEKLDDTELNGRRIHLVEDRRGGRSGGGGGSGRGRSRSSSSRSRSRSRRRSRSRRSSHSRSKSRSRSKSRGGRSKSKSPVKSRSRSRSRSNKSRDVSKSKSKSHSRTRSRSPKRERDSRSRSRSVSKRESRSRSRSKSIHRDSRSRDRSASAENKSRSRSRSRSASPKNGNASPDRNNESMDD

B1: bbs-II/3'Stem (ssRNA)
RNA: GGACGGUCAACCAGGCGACCGU
Regarding B1, in the data set with B52 (SRp55) full length [1], the binding result is listed as “binds”.

B2: BBS #23 (ssRNA)
RNA: GGGAGAAUUCAACUGCCAUCUAGGCCCAACUGCUAAGAAGCAUCCUGUACGAUCAACCCGGCGACAGUACUACAAGCUUCUGGACUCGGU
B2: the binding result with B52 (SRp55) full length [2] is “binds”.

B3: BBS-I/NoBulge (ssRNA)
RNA: GGCGGUCAACCAGGCGACCGCC
As for B3, the binding result in the data set with B52 (SRp55) full length [3] was “binds”.

B4: mature pentavalent BBS(5) aptamer (ssRNA)
RNA: GCGGCCGCCUCCGCGGCCGCCUGAUGAGUCCGUGAGGACGAAACAUGCAUGUCGAGAGUACGAUCAACCAGGCGACAGUACUCUCGACGAUCAACCAGGCGACAGUGGCUGGUCAACCAGGCGACCGCCACUGCAGGGUAACGGUCAACCAGGCGACCGUUACCCGGACGGUCAACCAGGCGACCGUUGACUUCGGUCAGUCGAGAUGCAUGUC
As to B4, the binding signal with B52 (SRp55) full length [4] is 10 fold more avid than BBS #14.

B5: BBS-I/Long (ssRNA)
RNA: GGCUGGUCAACCAGGCGACCGCCACCCGCGCGC
In the case of B5, the binding signal with B52 (SRp55) full length [5] is 1 fold of BBS #8.

B6: BBS-II (ssRNA)
RNA: GGGUACGAUCAACCAGGCGACAGUACCC
Turning to B6, the binding result with B52 (SRp55) full length [6] is listed as “binds”.

B7: AntiBBS-I (ssRNA)
RNA: GGCGGUCGCCUGGUUGACCAGCC
Take B7: the binding result in the data set with B52 (SRp55) full length [7] (hairpin) is on record as “no binding”.

B8: BBS #8 ScaI-trimmed (ssRNA)
RNA: GGGAGAAUUCAACUGCCAUCUAGGCUGGUCAACCAGGCGACCGCCACCCGCGCGCGCAAUACCUAGU
For the molecule B8, the Kd in the data set with B52 (SRp55) full length [8] was around 20 nM.

B9: BBS #8 (ssRNA)
RNA: GGGAGAAUUCAACUGCCAUCUAGGCUGGUCAACCAGGCGACCGCCACCCGCGCGCGCAAUACCUAGUACUACAAGCUUCUGGACUCGGU
Regarding B9, the binding result with HSF (heat shock factor) is “no binding”; in the data set with RBP1 (SR protein), “no binding”; in the data set with B52 full length (F) it was “binds”; with B52 RRM1+RRM2 (R12), “binds”; with B52 RRM2+SR domain (R2S), “no binding”; with B52 SR domain (S) it was “no binding”. Also, the binding result in the data set with B52 RRM1 (R1) was “no binding”.

B10: UUCG/BBS (ssRNA)
RNA: GGUCGCCUGGUUGAUCUUCGGAUCAACCAGGCGACA
In the case of B10, the binding result with B52 (SRp55) full length [9] was “no binding”.

B11: AntiBBS-II (ssRNA)
RNA: GGACUGUCGCCUGGUUGAUCGU
B11: in the data set with B52 (SRp55) full length [7], the binding result is reported as “no binding”.

B12: BBS #14 ScaI-trimmed (ssRNA)
RNA: GGGAGAAUUCAACUGCCAUCUAGGCAGGGUAACGAUCAACCUGGCGACAGCUGCCCUGCCGUCCAAGU
For the molecule B12, in the data set with B52 (SRp55) full length [8], the dissociation constant Kd is around 50 nM.

B13: BBS-I (ssRNA)
RNA: GGCUGGUCAACCAGGCGACCGCC
As to B13, in the data set with B52 (SRp55) full length [10], the binding signal is 1 fold of BBS #8.
